# Results published in publication PMC7826288, “Dynamics of TRF1 organizing a single human telomere” (Nucleic Acids Research, 2020).
# B1: human TRF1(3-439) (natural protein, UniProt P54274 3-439, looked up)
# chain: EDVSSAAPSPRGCADGRDADPTEEQMAETERNDEEQFECQELLECQVQVGAPEEEEEEEEDAGLVAEAEAVAAGWMLDFLCLSLCRAFRDGRSEDFRRTRNSAEAIIHGLSSLTACQLRTIYICQFLTRIAAGKTLDAQFENDERITPLESALMIWGSIEKEHDKLHEEIQNLIKIQAIAVCMENGNFKEAEEVFERIFGDPNSHMPFKSKLLMIISQKDTFHSFFQHFSYNHMMEKIKSYVNYVLSEKSSTFLMKAAAKVVESKRTRTITSQDKPSGNDVEMETEANLDTRKSVSDKQSAVTESSEGTVSLLRSHKNLFLSKLQHGTQQQDLNKKERRVGTPQSTKKKKESRRATESRIPVSKSQPVTPEKHRARKRQAWLWEEDKNLRSGVRKYGEGNWSKILLHYKFNNRTSVMLKDRWRTMKKLKLISSDSED
# notes: also called TRF1 dimer; source: E. coli BL21(DE3), purified (Ni-NTA, 3C protease, HiTrap Heparin, Superdex 200)
# Molecular target: the molecule itself
# Test: SEC; Superdex 200 Increase 10/300 GL, 20 mM Tris-HCl (pH 8.0), 200 mM NaCl; molecular weight assessed against standard molecular markers
protein,measurement,value
B1,stoichiometry N,2
